Source: patent US20180222961A1 (IMMATICS BIOTECHNOLOGIES, published 2018)

target: T1, HLA-A*02:01 (human); test: UV-exchange b2m ELISA; exchange-yield grade
T1 construct: also called peptide-receptive MHC molecules
In short: (§1)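 Peptide–MHC complexes formed by UV-ligand exchange, in which a UV-cleavable peptide is replaced by the test peptide. Exchange yield measured by ELISA detecting β2m of stabilised complexes captured on streptavidin, against refolded HLA-A*02:01/MLA-001 monomer standards (15-500 ng/ml); samples diluted 100-fold.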

Binder | peptide exchange yield
MIPTFTALL | 50 to 75%
GLLSLTSTLYL | > 75%
YMVHIQVTL | > 75%
KVLGVNVML | > 75%
MMEEMIFNL | > 75%
FLDPDRHFL | > 75%
GLLQELSSI | > 75%
SLLLPSIFL | > 75%

target: T2, HLA-A*03:01 (human); test: UV-exchange b2m ELISA; exchange-yield grade
T2 construct: also called peptide-receptive MHC molecules
In short: as §1

Binder | peptide exchange yield
VVHAVFALK | 50 to 75%
RVAELLLLH | 20 to 50%
KVAGERYVYK | 50 to 75%
RSLRYYYEK | 20 to 50%
KILEEHTNK | 20 to 50%
ATFERVLLR | 50 to 75%
QSMYYPLQLK | 20 to 50%
LLQPPPLLAR | 20 to 50%
KVVDRWNEK | 20 to 50%

target: T3, HLA-B*44:02 (human); test: UV-exchange b2m ELISA; exchange-yield grade
T3 construct: also called peptide-receptive MHC molecules
In short: as §1

Binder | peptide exchange yield | binding result
AEFLLRIFL | 20 to 50% | –
MEHPGKLLF | – | binds
GEMEQKQL | 20 to 50% | –
AEATARLNVF | – | binds
AEIEPKADG | 20 to 50% | –
REAGDEFEL | 20 to 50% | –
REAGDEFELRY | 20 to 50% | –
GEGPKTSW | 20 to 50% | –
YEKGIMQKV | 20 to 50% | –
AERQPGAASL | 20 to 50% | –
REGPEEPGL | 20 to 50% | –
KEFLFNMY | 20 to 50% | –
YEVARILNL | 20 to 50% | –
LEAQQEAL | 20 to 50% | –
KEVDPTSHSY | 20 to 50% | –
AEDKRHYSV | 20 to 50% | –
QEAARAAL | 20 to 50% | –
IEHSTQAQDTL | 20 to 50% | –
SEITRIEM | 20 to 50% | –
TEVSRTEAI | 20 to 50% | –
TEVSRTEL | 20 to 50% | –
KESIPRWYY | 20 to 50% | –
VEQTRAGSLL | 20 to 50% | –
SEDGLPEGIHL | 20 to 50% | –
REGDTVQLL | 20 to 50% | –
SFEQVVNELF | 20 to 50% | –
GEIEIHLL | 10 to 20% | –
RELANDELIL | 20 to 50% | –

Binder | peptide exchange yield | binding result
EEAQWVRKY | 20 to 50% | –
NEAIMHQY | 20 to 50% | –
NEIWTHSY | 10 to 20% | –
EDGRLVIEF | 10 to 20% | –
AEHEGVSVL | 20 to 50% | –
LEKALQVF | 20 to 50% | –
SEDPSKLEA | 10 to 20% | –
LELPPILVY | 10 to 20% | –
QEILTQVKQ | 20 to 50% | –
IEALSGKIEL (also called lEALSGKIEL) | 20 to 50% | –
EDAALFKAW | 20 to 50% | –
AEHFSMIRA | 20 to 50% | –
HEFGHVLGL | 20 to 50% | –
FESHSTVSA | 10 to 20% | –
GEPATTVSL | 20 to 50% | –
SEVPTGTTA | 20 to 50% | –
TEFPLFSAA | 10 to 20% | –
PEKTTHSF | 10 to 20% | –
HESSSHHDL | 20 to 50% | –
REKFIASVI | 20 to 50% | –
AEQDPDELNKA | 20 to 50% | –
EEQYIAQF | 10 to 20% | –
SDSQVRAF | 10 to 20% | –
KEAIREHQM | 20 to 50% | –
REEFVSIDHL | 20 to 50% | –
REPGDIFSEL | 20 to 50% | –
TEAVVTNEL | 20 to 50% | –
